# Patent publication US12351610B2, “Interferon regulatory factor 5 inhibitors and uses thereof” (THE FEINSTEIN INSTITUTES FOR MEDICAL RESEARCH, priority 2019, dated 2025)
# “Also recorded” adds a separate entry of the source.
# Tests used:
# [1] = molecular target: T1, human full-length recombinant IRF5 variant 5 (isoform V5) (Homo sapiens, UniProt Q13568); assay: Surface plasmon resonance (SPR) binding of peptides to immobilized full-length recombinant IRF5; settings: peptides 1 μM, IRF5 immobilized on chip, 25° C.
# T1 construct: Full-length recombinant IRF5 protein (ab173024, Abcam) was immobilized onto a CMS series chip; purchased Abcam ab173024
# T1 sequence (Q13568 1-514 isoform Q13568-2): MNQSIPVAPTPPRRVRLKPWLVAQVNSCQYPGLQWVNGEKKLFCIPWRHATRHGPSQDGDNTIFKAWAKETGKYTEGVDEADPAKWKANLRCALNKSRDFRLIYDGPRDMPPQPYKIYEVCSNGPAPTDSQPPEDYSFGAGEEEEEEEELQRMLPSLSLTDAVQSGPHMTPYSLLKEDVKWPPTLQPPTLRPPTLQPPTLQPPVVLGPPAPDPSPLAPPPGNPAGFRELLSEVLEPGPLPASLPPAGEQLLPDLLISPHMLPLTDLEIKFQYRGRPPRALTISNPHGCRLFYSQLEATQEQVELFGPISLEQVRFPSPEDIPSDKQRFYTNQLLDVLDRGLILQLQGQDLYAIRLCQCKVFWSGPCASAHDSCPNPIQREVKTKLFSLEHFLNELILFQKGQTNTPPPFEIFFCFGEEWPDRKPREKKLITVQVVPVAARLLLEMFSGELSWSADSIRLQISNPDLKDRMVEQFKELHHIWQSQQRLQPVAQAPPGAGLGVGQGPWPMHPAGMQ
# Experimental: Surface Plasmon Resonance (SPR) Analysis. The Biacore T200 (GE Healthcare, UK) was used for real-time binding interaction studies. Full-length recombinant IRF5 protein (ab173024, Abcam) was immobilized onto a CMS series chip (GE Healthcare) by diluting to a concentration of 20 μg/mL in 10 mM acetate buffer (pH=5.0). A 1:1 mixture of N-hyrdoxysuccinimide and N-ethyl-N-(dimethyaminopropyl)carbodiimide was used to activate 2 flow-cells of the CMS chip. […] The sample flow-cell was injected with the diluted IRF5 at a flow rate of 10 μL/min by manual injection. The IRF5 injection was stopped when the SPR reached ˜490 RU. For binding of peptides to IRF5, the analytes (peptides) were diluted to 1 μM in 1×PBS+0.05% Tween20 buffer, filtered (0.22 μm) and injected over the IRF5 immobilized chip at a flow rate of 30 μL/min for 60 s at 25° C. with a dissociation time set for 1 min. Binding experiments were conducted in 1×PBS+0.05% Tween20 as the running buffer; at least 3 independent experiments were performed.
# Peptides (1 μM) were tested for their ability to directly interact with human full-length recombinant IRF5 variant 5 (isoform V5) by surface plasmon resonance (SPR) analysis. DWEYS (SEQ ID NO:23) peptide served as a non-targeted control and CPP1 (SEQ ID NO:4) as a control for the cell permeable sequence. […] A shared similarity between N5-1 (SEQ ID NO:20) and N5-2 (SEQ ID NO:17) is their relatively stronger positive charge, as compared to the others (Table 1).
# Human IRF5 contains two nuclear localization signals (NLS), one in the N-terminus and one in the C-terminus (27). N5-1 (SEQ ID NO:20) corresponds to the N-terminal NLS (PRRVRLK) (SEQ ID NO:24). To test whether any NLS is capable of binding to IRF5, we generated C5-2 (SEQ ID NO:22) that corresponds to the C-terminal NLS of IRF5 (PREKKLI) (SEQ ID NO:25) and examined binding by SPR.
# [2] = test system: IRF5 nuclear translocation in monocytes (Mo) of PBMC from healthy donors; assay: R848-induced IRF5 nuclear translocation in PBMC monocytes (CD14+), imaging flow cytometry; type: cell-based, human; settings: 10 μM peptide pre-incubation 1 h, then 500 ng/mL R848 for 2 h
# Experimental: (§1) Imaging Flow Cytometry. Imaging flow was performed as previously described on the Amnis Imagestream (19). Briefly, PBMCs from healthy donors were isolated and treated with inhibitor for 1 h, subsequently stimulated with R848 (500 ng/mL) or 2% SLE serum for 2 h, followed by staining for CD19 and CD14. PBMC were then fixed overnight in 1% paraformaldehyde and then permeabilized (19). Permeabilized cells were blocked in 5% BSA solution and stained for intracellular IRF5 (Abcam Catalog #: ab193245) or phospho(pSer462)IRF5 and FITC-conjugated secondary antibody (Abcam Catalog #: ab6896). Prior to acquisition, DRAQS dye was added at a 1:50 dilution. PBMC from SLE patients were only surface-stained and permeabilzed for intracellular IRF5 and DRAQS staining. Murine PBMC were stained similarly for intracellular IRF5 (Abcam Catolog #: 181553) (58) and APC-conjugated secondary antibody (BioLegend). Images were acquired on the ImageStream using the 40× objective. Nuclear translocation was quantified in the Amnis IDEAS software suite. Briefly, cells were first filtered through the brightfield area vs. brightfield aspect ratio gate to exclude non-viable and doublet events. Following which a similar gate of the DRAQS nuclear channel was used. This added an extra measure of stringency for cell viability. Images were gated on either CD14^+IRF5^+, CD19^+IRF5^+, or CD123^+BDCA2^+IRF5^+ events, followed by gating on images with a Gradient RMS of greater than 20 on the DRAQS channel. This was done to select images with a high level of clarity. Finally, IRF5 nuclear translocation was determined through use of the similarity score feature contrasting IRF5 staining with DRAQS staining. A similarity score≥2 was considered a translocation event.
# Peptide mimetics inhibit TLR7-induced IRF5 nuclear translocation. We next sought to determine whether in vitro binding data would translate into IRF5 cellular inhibition. IRF5 is a key downstream mediator of TLR7-induced cytokine expression and TLR7 signaling has been implicated in SLE pathogenesis (2,44-47). We examined the ability of IRF5 peptide mimetics to inhibit IRF5 nuclear translocation following stimulation of PBMC with R848. […] For the initial screening, isolated PBMC from healthy donors were pre-incubated in the presence of mock (PBS), or 10 μM CPP1 (SEQ ID NO:4), N5-1 (SEQ ID NO:20), N5-2 (SEQ ID NO:17), N5-3 (SEQ ID NO:18) or C5-2 (SEQ ID NO:22) inhibitor for 1 h followed by stimulation with 500 ng/mL of R848 for 2 h. Cells were surface-stained with anti-CD14 (monocytes or Mo) and anti-CD19 (B cells) antibodies, then permeabilized and stained for intracellular IRF5 and DRAQ5. As expected, R848 induced significant IRF5 nuclear translocation in mock-incubated Mo (2) and B cells.
# [3] = test system: IRF5 nuclear translocation in B cells of PBMC from healthy donors; assay: R848-induced IRF5 nuclear translocation in PBMC B cells (CD19+), imaging flow cytometry; type: cell-based, human; settings: 10 μM peptide pre-incubation 1 h, then 500 ng/mL R848 for 2 h
# Experimental: as §1, with “This added an extra measure of stringency for cell viability. Images were gated on either CD14^+IRF5^+, CD19^+IRF5^+, or CD123^+BDCA2^+IRF5^+ events, followed by gating on images with a Gradient RMS of greater than 20 on the DRAQS channel. This was done to select images with a high level of clarity.” left out, “A similarity score≥2 was considered a translocation event.” left out
Substance,binding affinity for IRF5 [1],effect on R848-induced IRF5 nuclear translocation in Mo [2],effect on R848-induced IRF5 nuclear translocation in B cells [3]
"DRQIKIWFQNRRMKWKK (listed as Drosophila antennapedia) [CPP1, reference compound]",minimal binding affinity,no significant effect,no significant effect
DRQIKIWFQNRRMKWKKEGVDEAD (cell penetrating and targeting sequence) [Peptide N5-5],no affinity for IRF5,–,–
DRQIKIWFQNRRMKWKKGPRDMPP (cell penetrating and targeting sequence) [Peptide N5-4],N5-3 (SEQ ID NO:18)>N5-4 (SEQ ID NO:19)>CPP1 (SEQ ID NO:4),–,–
DRQIKIWFQNRRMKWKKKSRDFRL (cell penetrating and targeting sequence) [Peptide N5-3],binding to a slightly lesser extent; also recorded: directly bind to the full-length inactive IRF5 monomer,significant reduction,–
DRQIKIWFQNRRMKWKKPRRVRLK (cell penetrating and targeting sequence) [Peptide N5-1],strongest binding affinity for IRF5; also recorded: directly bind to the full-length inactive IRF5 monomer,significant reduction,–
DRQIKIWFQNRRMKWKKRHATRHG (cell penetrating and targeting sequence) [Peptide N5-2],strongest binding affinity for IRF5; also recorded: directly bind to the full-length inactive IRF5 monomer,significant reduction,–
"DWEYS (listed as Homo sapiens) [peptide that served as a non-targeted control, reference compound]",no affinity for IRF5,–,–
